The text below walks through data of US6919086B1, “Graminae pollen allergen mutants for specific immunotherapy, and production and use of the same” (Merck Patent Gesellschaft mit, priority 1997, dated 2005).

In assay [1] the target is IgE antibodies of the allergic patient serum pool We 6/97. As to the kind of experiment: EAST inhibition, serum pool We 6/97.
Assay [2] deals with IgE antibodies of the individual allergic patient serum II/17. As to the kind of experiment: EAST inhibition, individual serum II/17.
Assay [3] deals with specific IgE on basophils from the blood of allergic patient. Briefly: cell-based or functional assay.
Assay [4] has as its target IgE antibodies of the individual allergic patient serum II/12. Briefly: EAST inhibition, individual serum II/12.
Assay [5] has as its target IgE antibodies of the allergic patient serum pool Bor 18/100 (20 donors). Briefly: EAST inhibition, serum pool Bor 18/100.
For assay [6], the target named is IgE antibodies of the individual allergic patient serum II/3. As to the kind of experiment: EAST inhibition, individual serum II/3.

B1: rPhl p 5b deletion mutant DM1 (deletion K50-P132, D49L) (protein)
chain: ADAGYAPATPAAAGAAAGKATTEEQKLIEDINVGFKAAVAAAASVPAALAGELQIIDKIDAAFKVAATAAATAPADDKFTVFEAAFNKAIKESTGGAYDTYKCIPSLEAAVKQAYAATVAAAPQVKYAVFEAALTKAITAMSEVQKVSQPATGAATVAAGAATTAAGAASGAATVAAGGYKV
For the molecule B1, the IC50 – broadly, the point on the concentration scale where inhibition reaches its midpoint – in assay [1] is 17 µM; in assay [2], 2 nM; in assay [5], 28 nM; in assay [6], 17 nM. Also, the allergenic potency (Prel) at 25% inhibition (relative to native Phl p 5b) in assay [1] came to 0.022; in assay [2], 0.033; in assay [4], 3.4e-05; in assay [5], 0.039; in assay [6] it was 0.042. Moreover, the allergenic potency (Prel) at 50% inhibition (relative to native Phl p 5b) was found to be 0.0004 in assay [1]; 0.001 in assay [2]; 1e-10 in assay [4]; 0.0015 in assay [5]; 0.0035 in assay [6]. Moreover, the inhibition value (inhibitor concentration at 25% inhibition) in assay [1] was found to be 2.3e-08 mol/L; in assay [2] it was 6.5e-09 mol/L; in assay [4] it was 1.5e-05 mol/L; in assay [5] it was 8.6e-09 mol/L; in assay [6] it was 1.2e-08 mol/L. Besides, the concentration required to bring about a 30% histamine release from basophils, against wild type rPh1 p 5b in assay [3] worked out at 20 fold higher.
